Results from FireProtDB (doi:10.1002/pro.5560050915).

B1: Adrenodoxin, mitochondrial, P00257 (parent)
chain: MAARLLRVASAALGDTAGRWRLLARPRAGAGGLRGSRGPGLGGGAVATRTLSVSGRAQSSSEDKITVHFINRDGETLTTKGKIGDSLLDVVVQNNLDIDGFGACEGTLACSTCHLIFEQHIFEKLEAITDEENDMLDLAYGLTDRSRLGCQICLTKAMDNMTVRVPDAVSDARESIDMGMNSSKIE

Variants of: B1
Settings: Bos taurus, pH 8.5, Thermal, DSC, ascorbate 1 mM, structure 1AYF, whole UniProt chain shown; for ddG of mutation (higher = less stable) / unfolding free energy: 37 °C

Variant	ddG of mutation (higher = less stable) [kJ/mol]	unfolding free energy [kJ/mol]	Tm [°C]	change of melting temperature, mutant - wild type (higher = more stable) [°C]	heat capacity change of unfolding [kcal/mol/K]	unfolding enthalpy (calorimetric) [kJ/mol]
H114R	4.85	8.45	49.3	-2.11	1.03	249
H114Q			46.5	-4.94	1.7	249
H114T	4.98	8.33				
T112A	5.48	7.82	47.1	-4.29	1.63	285
T112S	-0.209	13.5	51.6	0.21	1.91	354
D134E	-1.88	15.2	53.4	2.01	2.45	363
Y140L	1.51	11.8	50.7	-0.69	1.92	330
Y140F	0.0418	13.3	51.5	0.11	1.8	350
Y140S			50.6	-0.79	1.96	334
Y140W	0.879	12.4	51.7	0.31	1.87	329
C153S			55.8	4.36	1.62	374
